# Key:
# [1] = target: SNAP-tagged wild-type human PTH1R (human) (UniProt Q03431); assay: AlphaScreen or HTRF; crude membrane fractions (0.2–1 µg per well) of HEK293T cells with SNAP-Lumi4-Tb-labelled PTH1R, without mini-Gs; labeled M-PTH(1–14) tracer with unlabeled M-PTH(1–14); 4 h on ice
# [2] = target: SNAP-tagged wild-type human PTH1R (human) (UniProt Q03431); assay: AlphaScreen or HTRF; binding of 40 nM M-PTH(1–14) to membrane fractions supplemented with increasing concentrations of mini-Gs; data relative to PTH1R without mini-Gs; EC50 of mini-Gs read through ligand occupancy, apparent
substance,measurement,setting,value
"Human [Ac5c^1, Aib^3, Q^10, Har^11, A^12, W^14]PTH(1–14) (peptide)","fold increase in affinity, membrane fractions against whole cells",[1],5 fold
M-PTH(1–14) labeled at K^13 with HiLyte dye 647 (peptide),fold increase of fractional binding with increasing mini-Gs,[2],< 2 fold
Mini-Gs 393,EC50,[2],1390 nM
